{"source": "the Human Domainome abundance scans (Beltran et al. 2025)", "parents": {"B1": {"name": "Death-inducer obliterator 1, residues 263 to 321; numbered along this chain, Q9BTC0 (parent)", "chain": "GYDPNALYCICRQPHNNRFMICCDRCEEWFHGDCVGISEARGRLLERNGEDYICPNCTI"}}, "note": "± gives the uncertainty stated by the source."}
{"variants_of": "B1", "assay": "abundance fitness (aPCA) (normalised: wild type 0, dead -1); higher = more abundant; growth selection in yeast, the domain comes from the species named", "settings": "Homo sapiens"}
{"variant": "GYDPNALYCICRQPHNNRFMICCDRCEEWFHGDCVGISEARGRLLERNGEDCICPNCTI", "note": "[Y52C]", "abundance fitness": "-0.275 ± 0.44"}
{"variant": "GYDPNALYCICRQPHNNRFMICCDRCEEWFHGDCVGISEARGRLLERNGNDYICPNCTI", "note": "[E50N]", "abundance fitness": "-0.027 ± 0.13"}
{"variant": "GYDPNALYCICRQPHNNRFMICCDRCEEWFHGDCVGISEARGRLLERNGTDYICPNCTI", "note": "[E50T]", "abundance fitness": "0.037 ± 0.14"}
{"variant": "GYDPNALYCICRQPHNNRFMICCDRCEEWFHGDCVGISEARGRLLERNGCDYICPNCTI", "note": "[E50C]", "abundance fitness": "-0.461 ± 0.17"}
{"variant": "GYDPNALYCICRQPHNNRFMICCDRCEEWFHGDCVGISEARGRLLERNGKDYICPNCTI", "note": "[E50K]", "abundance fitness": "0.04 ± 0.26"}
{"variant": "GYDPNALYCICRQPHNNRFMICCDRCEEWFHGDCVGISEARGRLLERNGGDYICPNCTI", "note": "[E50G]", "abundance fitness": "-0.046 ± 0.099"}
{"variant": "GYDPNALYCICRQPHNNRFMICCDRCEEWFHGDCVGISEARGRLLERNGHDYICPNCTI", "note": "[E50H]", "abundance fitness": "-0.006 ± 0.24"}
{"variant": "GYDPNALYCICRQPHNNRFMICCDRCEEWFHGDCVGISEARGRLLERNGVDYICPNCTI", "note": "[E50V]", "abundance fitness": "-0.041 ± 0.11"}
{"variant": "GYDPNALYCICRQPHNNRFMICCDRCEEWFHGDCVGISEARGRLLERNGIDYICPNCTI", "note": "[E50I]", "abundance fitness": "-0.14 ± 0.12"}
{"variant": "GYDPNALYCICRQPHNNRFMICCDRCEEWFHGDCVGISEARGRLLERNGFDYICPNCTI", "note": "[E50F]", "abundance fitness": "-0.019 ± 0.21"}
{"variant": "GYDPNALYCICRQPHNNRFMICCDRCEEWFHGDCVGISEARGRLLERNGWDYICPNCTI", "note": "[E50W]", "abundance fitness": "-0.356 ± 0.2"}
{"variant": "GYDPNALYCICRQPHNNRFMICCDRCEEWFHGDCVGISEARGRLLERNGPDYICPNCTI", "note": "[E50P]", "abundance fitness": "0.068 ± 0.14"}
{"variant": "GYDPNALYCICRQPHNNRFMICCDRCEEWFHGDCVGISEARGRLLERNGSDYICPNCTI", "note": "[E50S]", "abundance fitness": "-0.192 ± 0.094"}
{"variant": "GYDPNALYCICRQPHNNRFMICCDRCEEWFHGDCVGISEARGRLLERNGADYICPNCTI", "note": "[E50A]", "abundance fitness": "-0.011 ± 0.11"}
{"variant": "GYDPNALYCICRQPHNNRFMICCDRCEEWFHGDCVGISEARGRLLERNGLDYICPNCTI", "note": "[E50L]", "abundance fitness": "-0.201 ± 0.094"}
{"variant": "GYDPNALYCICRQPHNNRFMICCDRCEEWFHGDCVGISEARGRLLERNGYDYICPNCTI", "note": "[E50Y]", "abundance fitness": "-0.58 ± 0.16"}
{"variant": "GYDPNALYCICRQPHNNRFMICCDRCEEWFHGDCVGISEARGRLLERNGMDYICPNCTI", "note": "[E50M]", "abundance fitness": "-0.157 ± 0.11"}
{"variant": "GYDPNALYCICRQPHNNRFMICCDRCEEWFHGDCVGISEARGRLLERNGRDYICPNCTI", "note": "[E50R]", "abundance fitness": "-0.273 ± 0.13"}
{"variant": "GYDPNALYCICRQPHNNRFMICCDRCEEWFHGDCVGISEARGRLLERNGDDYICPNCTI", "note": "[E50D]", "abundance fitness": "-0.005 ± 0.13"}
{"variant": "GYDPNALYCICRQPHNNRFMICCDRCEEWFHGDCVGISEARGRLLEWNGEDYICPNCTI", "note": "[R47W]", "abundance fitness": "-0.062 ± 0.11"}
{"variant": "GYDPNALYCICRQPHNNRFMICCDRCEEWFHGDCVGISEARGRLLENNGEDYICPNCTI", "note": "[R47N]", "abundance fitness": "-0.05 ± 0.2"}
{"variant": "GYDPNALYCICRQPHNNRFMICCDRCEEWFHGDCVGISEARGRLLEPNGEDYICPNCTI", "note": "[R47P]", "abundance fitness": "0.186 ± 0.083"}
{"variant": "GYDPNALYCICRQPHNNRFMICCDRCEEWFHGDCVGISEARGRLLEINGEDYICPNCTI", "note": "[R47I]", "abundance fitness": "0.058 ± 0.092"}
{"variant": "GYDPNALYCICRQPHNNRFMICCDRCEEWFHGDCVGISEARGRLLESNGEDYICPNCTI", "note": "[R47S]", "abundance fitness": "0.037 ± 0.072"}
{"variant": "GYDPNALYCICRQPHNNRFMICCDRCEEWFHGDCVGISEARGRLLEGNGEDYICPNCTI", "note": "[R47G]", "abundance fitness": "0.111 ± 0.083"}
{"variant": "GYDPNALYCICRQPHNNRFMICCDRCEEWFHGDCVGISEARGRLLEFNGEDYICPNCTI", "note": "[R47F]", "abundance fitness": "-0.204 ± 0.11"}
{"variant": "GYDPNALYCICRQPHNNRFMICCDRCEEWFHGDCVGISEARGRLLEYNGEDYICPNCTI", "note": "[R47Y]", "abundance fitness": "-0.286 ± 0.11"}
{"variant": "GYDPNALYCICRQPHNNRFMICCDRCEEWFHGDCVGISEARGRLLEKNGEDYICPNCTI", "note": "[R47K]", "abundance fitness": "0.359 ± 0.075"}
{"variant": "GYDPNALYCICRQPHNNRFMICCDRCEEWFHGDCVGISEARGRLLEANGEDYICPNCTI", "note": "[R47A]", "abundance fitness": "0.083 ± 0.093"}
{"variant": "GYDPNALYCICRQPHNNRFMICCDRCEEWFHGDCVGISEARGRLLEDNGEDYICPNCTI", "note": "[R47D]", "abundance fitness": "0.268 ± 0.16"}
{"variant": "GYDPNALYCICRQPHNNRFMICCDRCEEWFHGDCVGISEARGRLLEQNGEDYICPNCTI", "note": "[R47Q]", "abundance fitness": "-0.346 ± 0.38"}
{"variant": "GYDPNALYCICRQPHNNRFMICCDRCEEWFHGDCVGISEARGRLLEVNGEDYICPNCTI", "note": "[R47V]", "abundance fitness": "0.188 ± 0.09"}
{"variant": "GYDPNALYCICRQPHNNRFMICCDRCEEWFHGDCVGISEARGRLLETNGEDYICPNCTI", "note": "[R47T]", "abundance fitness": "0.134 ± 0.12"}
{"variant": "GYDPNALYCICRQPHNNRFMICCDRCEEWFHGDCVGISEARGRLLEENGEDYICPNCTI", "note": "[R47E]", "abundance fitness": "-0.043 ± 0.13"}
{"variant": "GYDPNALYCICRQPHNNRFMICCDRCEEWFHGDCVGISEARGRLLEMNGEDYICPNCTI", "note": "[R47M]", "abundance fitness": "-0.155 ± 0.17"}
{"variant": "GYDPNALYCICRQPHNNRFMICCDRCEEWFHGDCVGISEARGRLLELNGEDYICPNCTI", "note": "[R47L]", "abundance fitness": "0.079 ± 0.071"}
{"variant": "GYDPNALYCICRQPHNNRFMICCDRCEEWFHGDCVGISEARGRLLWRNGEDYICPNCTI", "note": "[E46W]", "abundance fitness": "-0.265 ± 0.2"}
{"variant": "GYDPNALYCICRQPHNNRFMICCDRCEEWFHGDCVGISEARGRLLGRNGEDYICPNCTI", "note": "[E46G]", "abundance fitness": "-0.089 ± 0.087"}
{"variant": "GYDPNALYCICRQPHNNRFMICCDRCEEWFHGDCVGISEARGRLLTRNGEDYICPNCTI", "note": "[E46T]", "abundance fitness": "0.106 ± 0.11"}
{"variant": "GYDPNALYCICRQPHNNRFMICCDRCEEWFHGDCVGISEARGRLLMRNGEDYICPNCTI", "note": "[E46M]", "abundance fitness": "-0.055 ± 0.071"}
{"variant": "GYDPNALYCICRQPHNNRFMICCDRCEEWFHGDCVGISEARGRLLIRNGEDYICPNCTI", "note": "[E46I]", "abundance fitness": "-0.265 ± 0.12"}
{"variant": "GYDPNALYCICRQPHNNRFMICCDRCEEWFHGDCVGISEARGRLLYRNGEDYICPNCTI", "note": "[E46Y]", "abundance fitness": "0.065 ± 0.17"}
{"variant": "GYDPNALYCICRQPHNNRFMICCDRCEEWFHGDCVGISEARGRLLPRNGEDYICPNCTI", "note": "[E46P]", "abundance fitness": "-0.189 ± 0.12"}
{"variant": "GYDPNALYCICRQPHNNRFMICCDRCEEWFHGDCVGISEARGRLLLRNGEDYICPNCTI", "note": "[E46L]", "abundance fitness": "-0.109 ± 0.083"}
{"variant": "GYDPNALYCICRQPHNNRFMICCDRCEEWFHGDCVGISEARGRLLVRNGEDYICPNCTI", "note": "[E46V]", "abundance fitness": "0.044 ± 0.063"}
